Measured values published in publication PMC2744139 (Nature structural & molecular biology, 2009).

Target: T1, Cdc13 full-length (FL) (S. cerevisiae, UniProt P32797 1-924)
T1 sequence: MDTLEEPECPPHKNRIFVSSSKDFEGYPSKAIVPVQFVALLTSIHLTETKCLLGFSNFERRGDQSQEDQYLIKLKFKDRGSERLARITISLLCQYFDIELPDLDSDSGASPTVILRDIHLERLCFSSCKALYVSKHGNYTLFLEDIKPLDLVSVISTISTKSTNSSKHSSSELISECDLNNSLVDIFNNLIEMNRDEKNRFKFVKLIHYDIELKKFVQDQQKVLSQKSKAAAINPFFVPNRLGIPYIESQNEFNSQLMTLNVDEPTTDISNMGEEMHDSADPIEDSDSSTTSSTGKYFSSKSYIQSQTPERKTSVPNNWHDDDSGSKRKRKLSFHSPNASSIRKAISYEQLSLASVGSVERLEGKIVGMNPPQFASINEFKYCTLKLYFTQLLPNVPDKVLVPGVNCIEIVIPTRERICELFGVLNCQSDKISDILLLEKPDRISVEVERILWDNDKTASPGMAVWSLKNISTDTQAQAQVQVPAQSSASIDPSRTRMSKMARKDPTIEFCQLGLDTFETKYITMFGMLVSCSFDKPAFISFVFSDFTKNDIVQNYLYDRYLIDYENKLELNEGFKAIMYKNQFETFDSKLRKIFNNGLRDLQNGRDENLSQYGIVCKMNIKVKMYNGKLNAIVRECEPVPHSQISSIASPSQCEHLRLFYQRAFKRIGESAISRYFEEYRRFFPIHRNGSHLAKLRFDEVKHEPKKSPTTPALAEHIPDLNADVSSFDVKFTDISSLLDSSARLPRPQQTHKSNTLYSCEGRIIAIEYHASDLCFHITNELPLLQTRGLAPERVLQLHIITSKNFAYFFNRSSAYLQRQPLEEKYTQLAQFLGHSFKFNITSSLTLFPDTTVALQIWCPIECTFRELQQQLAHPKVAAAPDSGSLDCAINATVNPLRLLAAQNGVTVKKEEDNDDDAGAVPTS
Assay: fluorescence polarisation

- Kd: ~325 nM
B1: Hsp82 (yeast Hsp90 molecular chaperone) (natural protein)
chain: not shown
